Like-named read-outs stand apart in the source and are kept apart here.
Experiments:
Experiment in all cases: MST
[1] = biological target: FITC-labeled IST1 (recombinant full-length IST1)
[2] = biological target: FITC-labeled IST1 (recombinant full-length IST1); remark: listed apart in the source
[3] = biological target: FITC-labeled IST1 (recombinant full-length IST1); remark: listed apart in the source

B1: CHMP1B (recombinant full length) (natural protein)
chain: MSNMEKHLFNLKFAAKELSRSAKKCDKEEKAEKAKIKKAIQKGNMEVARIHAENAIRQKNQAVNFLRMSARVDAVAARVQTAVTMGKVTKSMAGVVKSMDATLKTMNLEKISALMDKFEHQFETLDVQTQQMEDTMSSTTTLTTPQNQVDMLLQEMADEAGLDLNMELPQGQTGSVGTSVASAEQDELSQRLARLRDQV
With B1 as the binder, how does the Kd [1] read?
The Kd was 20.3 µM.

And the Kd [2]?
Its Kd is 153 µM.

What about the Kd [3] of the same binder?
The Kd was 9 µM.

Source: doi:10.1101/2023.08.28.555152
